The record followed here is paper PMC10110553.

Positions count from the first letter of the chain named.

Experiment [1] has as its target Hsp90 of the yeast-purified Hsp90:Cdc37:CRaf^KD complex (human) (UniProt P08238). As to the kind of experiment: cryo-EM structure; same sample as a1; pairs inside the natively isolated Hsp90^closed:Cdc37:CRaf^KD complex, which was assembled in yeast and co-purified.
Experiment [2] concerns the target Hsp90 (E. coli purified; used as Hsp90^open without nucleotide or Hsp90^closed) (human) (UniProt P08238).
Experiment [3] concerns the target Hsp90 of the mammalian-purified Hsp90:Cdc37:CRaf complexes (human) (UniProt P08238).
For experiment [4], the target named is Hsp90 (E. coli purified; used as Hsp90^open without nucleotide or Hsp90^closed) (human) (UniProt P08238). Briefly: fluorescence correlation spectroscopy (FCS); ~20 nM Alexa488-labelled PP5 with varying concentrations of Hsp90^open; room temperature; hydrodynamic radius against Hsp90 concentration, one-site total binding fit; apparent KD.
For experiment [5] the target is unchanged. Briefly: fluorescence correlation spectroscopy (FCS); ~20 nM Alexa488-labelled PP5 with varying concentrations of Hsp90^closed dimer; room temperature; hydrodynamic radius against Hsp90 concentration, one-site total binding fit; apparent KD.
The target is the same in experiment [6]. The description is as above. This is another data set of the same source.
Experiment [7] has the same target. The source holds these as a separate data set.
The target of experiment [8] is Hsp90 of the mammalian-purified Hsp90:Cdc37:CRaf complexes (human) (UniProt P08238). The source holds these as a separate data set.

UniProt P08238, sequence (P08238 2-724 limits assumed): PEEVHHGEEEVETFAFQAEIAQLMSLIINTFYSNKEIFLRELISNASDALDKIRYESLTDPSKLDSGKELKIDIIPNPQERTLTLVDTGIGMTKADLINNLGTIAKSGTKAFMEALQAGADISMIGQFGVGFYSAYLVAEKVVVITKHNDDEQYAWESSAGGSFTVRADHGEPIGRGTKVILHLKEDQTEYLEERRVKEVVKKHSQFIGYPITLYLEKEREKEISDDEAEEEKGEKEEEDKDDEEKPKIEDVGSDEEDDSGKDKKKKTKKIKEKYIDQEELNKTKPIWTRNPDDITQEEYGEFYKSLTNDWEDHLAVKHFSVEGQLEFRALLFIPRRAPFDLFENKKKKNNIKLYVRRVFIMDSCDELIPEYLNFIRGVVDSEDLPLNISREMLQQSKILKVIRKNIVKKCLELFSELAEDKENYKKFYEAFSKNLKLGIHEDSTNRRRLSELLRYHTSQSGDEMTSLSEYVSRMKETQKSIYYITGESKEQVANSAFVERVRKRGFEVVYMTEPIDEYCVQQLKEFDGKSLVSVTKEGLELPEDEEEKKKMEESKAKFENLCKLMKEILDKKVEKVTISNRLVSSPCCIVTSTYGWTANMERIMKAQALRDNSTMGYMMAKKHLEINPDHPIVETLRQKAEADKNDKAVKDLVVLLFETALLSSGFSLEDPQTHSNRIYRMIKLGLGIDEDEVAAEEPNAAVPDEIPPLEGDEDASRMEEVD

In general, stoichiometry N refers to the number of molecules, sites or subunits per partner or assembly. In turn, “Hsp90 of the yeast-purified Hsp90:Cdc37:CRaf^KD complex (from UniProt P08238 1-724) (natural protein)” gave a stoichiometry N in experiment [1] of 2.

B1: Serine/threonine-protein phosphatase 5 (PP5), wild type (enzyme)
chain: MAMAEGERTECAEPPRDEPPADGALKRAEELKTQANDYFKAKDYENAIKFYSQAIELNPSNAIYYGNRSLAYLRTECYGYALGDATRAIELDKKYIKGYYRRAASNMALGKFRAALRDYETVVKVKPHDKDAKMKYQECNKIVKQKAFERAIAGDEHKRSVVDSLDIESMTIEDEYSGPKLEDGKVTISFMKELMQWYKDQKKLHRKCAYQILVQVKEVLSKLSTLVETTLKETEKITVCGDTHGQFYDLLNIFELNGLPSETNPYIFNGDFVDRGSFSVEVILTLFGFKLLYPDHFHLLRGNHETDNMNQIYGFEGEVKAKYTAQMYELFSEVFEWLPLAQCINGKVLIMHGGLFSEDGVTLDDIRKIERNRQPPDSGPMCDLLWSDPQPQNGRSISKRGVSCQFGPDVTKAFLEENNLDYIIRSHEVKAEGYEVAHGGRCVTVFSAPNYCDQMGNKASYIHLQGSDLRPQFHQFTAVPHPNVKPMAYANTLLQLGMM
modifications: Alexa488 (maleimide dye) in the FCS assays
In the case of B1, in experiment [2], the rate of Cdc37^pS13 dephosphorylation by PP5 in Hsp90^open:Cdc37^pS13 (3 μM Cdc37^pS13 and equimolar Hsp90, 750 nM PP5, 25 °C) was 0.043 min^−1. Further, the rate of CRaf^pS338 dephosphorylation by PP5 in the Hsp90:Cdc37:CRaf complex (3 μM complex, 150 nM PP5, 25 °C) in experiment [3] is 0.19 min^−1. Also, the Kd in experiment [4] amounted to 0.62 µM; in experiment [5], 230 µM; in experiment [6], 0.43 µM.

B2: PP5^R150D (enzyme)
chain: B1 chain with R150D
modifications: Alexa488 (maleimide dye) in the FCS assays
For the molecule B2, the rate of Cdc37^pS13 dephosphorylation by PP5 in Hsp90^open:Cdc37^pS13 (3 μM Cdc37^pS13 and equimolar Hsp90, 750 nM PP5, 25 °C) in experiment [2] was 0.012 min^−1. Moreover, the rate of CRaf^pS338 dephosphorylation by PP5 in the Hsp90:Cdc37:CRaf complex (3 μM complex, 150 nM PP5, 25 °C) in experiment [3] was determined as 0.04 min^−1. In addition, in experiment [5], the Kd stood at 3300 µM.

B3: PP5^F148K (enzyme)
chain: B1 chain with F148K
modifications: Alexa488 (maleimide dye) in the FCS assays
In experiment [2], B3 yielded a rate of Cdc37^pS13 dephosphorylation by PP5 in Hsp90^open:Cdc37^pS13 (3 μM Cdc37^pS13 and equimolar Hsp90, 750 nM PP5, 25 °C) of 0.009 min^−1. Besides, the rate of CRaf^pS338 dephosphorylation by PP5 in the Hsp90:Cdc37:CRaf complex (3 μM complex, 150 nM PP5, 25 °C) in experiment [3] came out at 0.05 min^−1. Further, in experiment [5], the Kd stood at 2000 µM.

B4: PP5^R113D (enzyme)
chain: B1 chain with R113D
modifications: Alexa488 (maleimide dye) in the FCS assays
As to B4, the rate of Cdc37^pS13 dephosphorylation by PP5 in Hsp90^open:Cdc37^pS13 (3 μM Cdc37^pS13 and equimolar Hsp90, 750 nM PP5, 25 °C) in experiment [2] came out at 0.006 min^−1. The rate of CRaf^pS338 dephosphorylation by PP5 in the Hsp90:Cdc37:CRaf complex (3 μM complex, 150 nM PP5, 25 °C) in experiment [3] is 0.046 min^−1. Further, the Kd in experiment [5] worked out at 4300 µM.

B5: PP5^(αJ del) (PP5 with the last 10 residues truncated) (enzyme)
chain: MAMAEGERTECAEPPRDEPPADGALKRAEELKTQANDYFKAKDYENAIKFYSQAIELNPSNAIYYGNRSLAYLRTECYGYALGDATRAIELDKKYIKGYYRRAASNMALGKFRAALRDYETVVKVKPHDKDAKMKYQECNKIVKQKAFERAIAGDEHKRSVVDSLDIESMTIEDEYSGPKLEDGKVTISFMKELMQWYKDQKKLHRKCAYQILVQVKEVLSKLSTLVETTLKETEKITVCGDTHGQFYDLLNIFELNGLPSETNPYIFNGDFVDRGSFSVEVILTLFGFKLLYPDHFHLLRGNHETDNMNQIYGFEGEVKAKYTAQMYELFSEVFEWLPLAQCINGKVLIMHGGLFSEDGVTLDDIRKIERNRQPPDSGPMCDLLWSDPQPQNGRSISKRGVSCQFGPDVTKAFLEENNLDYIIRSHEVKAEGYEVAHGGRCVTVFSAPNYCDQMGNKASYIHLQGSDLRPQFHQFTAVPHPNVKPMAY
modifications: Alexa488 (maleimide dye) in the FCS assays
In experiment [7], B5 showed a rate of Cdc37 dephosphorylation by PP5^(αJ del) while Cdc37 is bound to Hsp90 of 0.055 min⁻¹. Further, in experiment [8], the rate of CRaf^pS338 dephosphorylation by PP5^(αJ del) in the Hsp90:Cdc37:CRaf complex worked out at 0.28 min^−1. For the same molecule, the figures for the Kd in experiment [4] and in experiment [6] were 0.12 µM and 0.13 µM, respectively.
